Results reported in US20230295335A1 (published 2023).

T1: recombinant human EpCAM (R&D systems, cat no 9277-EP) (human, UniProt P16422 24-265)
T1 construct: also called human EpCAM extracellular domain
T1 sequence: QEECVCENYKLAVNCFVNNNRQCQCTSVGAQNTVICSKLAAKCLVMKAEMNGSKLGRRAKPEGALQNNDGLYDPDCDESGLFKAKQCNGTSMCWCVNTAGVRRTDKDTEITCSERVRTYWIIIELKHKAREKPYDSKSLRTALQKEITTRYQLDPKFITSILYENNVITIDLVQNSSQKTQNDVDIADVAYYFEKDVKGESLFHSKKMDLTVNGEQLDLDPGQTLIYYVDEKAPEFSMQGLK

T2: full length mouse EpCAM on CHO-S cells (mouse, UniProt Q99JW5 24-315)
T2 sequence: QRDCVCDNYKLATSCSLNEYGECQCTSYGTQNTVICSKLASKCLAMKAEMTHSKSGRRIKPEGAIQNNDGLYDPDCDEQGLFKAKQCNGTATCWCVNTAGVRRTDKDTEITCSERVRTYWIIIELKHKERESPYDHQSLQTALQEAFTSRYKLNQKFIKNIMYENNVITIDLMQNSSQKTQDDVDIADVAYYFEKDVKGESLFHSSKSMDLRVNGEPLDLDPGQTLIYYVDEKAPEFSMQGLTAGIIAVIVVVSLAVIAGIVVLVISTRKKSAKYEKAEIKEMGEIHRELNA

T3: full length cynomolgus monkey EpCAM on CHO-S cells (cynomolgus monkey, UniProt Q1WER1 24-314 (rhesus entry))
T3 sequence: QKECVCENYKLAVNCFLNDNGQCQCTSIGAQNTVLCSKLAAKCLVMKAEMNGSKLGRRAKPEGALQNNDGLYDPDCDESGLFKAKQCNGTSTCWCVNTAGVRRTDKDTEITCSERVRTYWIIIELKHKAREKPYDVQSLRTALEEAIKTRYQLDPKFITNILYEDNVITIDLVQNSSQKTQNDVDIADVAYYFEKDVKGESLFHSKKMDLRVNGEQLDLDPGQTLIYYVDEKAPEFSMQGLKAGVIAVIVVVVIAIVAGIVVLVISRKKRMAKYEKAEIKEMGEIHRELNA


Tests used:
[1] = target: T1, recombinant human EpCAM (R&D systems, …); assay: BLI classical sandwich cross-block; human EpCAM held by immobilized first antibody IgG1-EpCAM-A37-FEAR (competitor); second antibody 10 µg/mL in solution
Procedure: (§1) The theoretical molecular mass of human EpCAM based on the amino acid sequence (28 kDa) was used for calculations. The association (300 s) of a second EpCAM antibody (10 μg/mL in Sample Diluent) was determined. Data were acquired using Data Acquisition Software v12.0.1.8 (FortéBio) and analyzed with Data Analysis HT Software v12.0.1.55 (FortéBio). Data traces were corrected by subtraction of a reference curve (Sample Diluent instead of second antibody) in order to correct for the dissociation of human EpCAM from the immobilized first antibody. The Y-axis was aligned to the start of the association step and Savitzky-Golay filtering was applied. The corrected association responses of the second antibodies were plotted in a matrix format. […] By contrast, responses between −0.1 and 0.1 nm were considered to be blocking antibody pairs.

[2] = target: T1, recombinant human EpCAM (R&D systems, …); assay: BLI classical sandwich cross-block; human EpCAM held by immobilized first antibody IgG1-EpCAM-UBS-54-FEAR (competitor); second antibody 10 µg/mL in solution
Procedure: as §1

[3] = target: T1, recombinant human EpCAM (R&D systems, …); assay: BLI classical sandwich cross-block; human EpCAM held by immobilized first antibody IgG1-EpCAM-323-A3-FEAR (competitor); second antibody 10 µg/mL in solution
Procedure: as §1

[4] = target: T1, recombinant human EpCAM (R&D systems, …); assay: BLI classical sandwich cross-block; human EpCAM held by immobilized first antibody IgG1-EpCAM-C52-FEAR (competitor); second antibody 10 µg/mL in solution
Procedure: as §1

[5] = target: T2, full length mouse EpCAM on CHO-S cells; assay: flow cytometry on CHO-S cells transfected with mouse EpCAM
Procedure: (§2) Binding of EpCAM antibodies to CHO-S cells transiently transfected with full length human, cynomolgus monkey or mouse EpCAM was analyzed by flow cytometry. […] Cells were washed twice in FACS buffer, re-suspended in 20 μL FACS buffer supplemented with TO-PRO™-3 Iodide (diluted 1:20000; Invitrogen, cat. no. T3605) and analyzed on an iQue screener (Intellicyt Corporation, USA). Binding curves were analyzed by non-linear regression (sigmoidal dose-response with variable slope) using GraphPad Prism V8.4.1 software (GraphPad Software, San Diego, CA, USA).

[6] = target: T3, full length cynomolgus monkey EpCAM on …; assay: flow cytometry on CHO-S cells transfected with cynomolgus monkey EpCAM
Procedure: as §2

FcγRIIIa-F158 = target: T4, FcγRIIIa-F158 (human, UniProt P08637 17-208); assay: SPR (Biacore 8K); His-tagged FcγR captured on anti-His chip
T4 construct: extracellular domain; Bought His-tagged protein
Procedure: (§3) At the end of each cycle, the surface was regenerated using 10 mM Glycine-HCl pH 1.5 (Cytiva, cat. no. BR100354).

FcγRIa = target: T5, FcγRIa (human, UniProt P12314 16-288, limits assumed, biotinylated); assay: as above
T5 construct: Bought His-tagged protein captured on anti-His chip; also called CD64 Protein, Human, Recombinant (His Tag), Biotinylated
Procedure: as §3

FcγRIIIa-V158 = target: T6, FcγRIIIa-V158 (human, UniProt P08637 17-208); assay: as above
T6 construct: Bought His-tagged protein
T6 sequence (P08637 17-208 F176V limits assumed): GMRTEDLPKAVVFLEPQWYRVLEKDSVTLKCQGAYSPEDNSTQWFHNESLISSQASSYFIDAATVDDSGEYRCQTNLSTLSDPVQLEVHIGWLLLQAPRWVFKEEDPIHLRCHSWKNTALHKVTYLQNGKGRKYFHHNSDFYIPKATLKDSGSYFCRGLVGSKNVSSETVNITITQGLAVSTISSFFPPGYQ
Procedure: as §3

T4 sequence (P08637 17-208): as the sequence (P08637 17-208 F176V limits assumed) above, with V160F counted along it
T5 sequence (P12314 16-288 limits assumed): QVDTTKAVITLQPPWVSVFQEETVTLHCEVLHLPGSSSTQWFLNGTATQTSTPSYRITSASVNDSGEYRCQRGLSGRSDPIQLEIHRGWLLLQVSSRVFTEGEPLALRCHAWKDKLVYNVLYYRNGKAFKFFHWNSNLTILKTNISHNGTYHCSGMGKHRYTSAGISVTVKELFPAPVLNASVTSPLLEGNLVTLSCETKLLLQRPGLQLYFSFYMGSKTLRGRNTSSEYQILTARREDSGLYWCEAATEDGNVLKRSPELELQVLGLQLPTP

Binder | corrected association response of the antibody in solution [1] | corrected association response of the antibody in solution [2] | corrected association response of the antibody in solution [3] | corrected association response of the antibody in solution [4] | binding result [5] | binding result [6] | binding result (FcγRIIIa-F158) | binding result (FcγRIa) | binding result (FcγRIIIa-V158)
IgG1-EpCAM-323-A3-FEAR (antibody, also called IgG1-323-A3-FEAR) heavy: QIQLVQSGPELKKPGETVKISCKASGYTFTNYGMNWVRQASGEGLKWMGWINTYTGEPTYGEDFKGRFAFSLETSASTAYLQINNLKNEDTATYFCARFGNYVDYWGQGTTLTVSSASTKGPSVFPLAPSSKSTSGGTAALGCLVKDYFPEPVTVSWNSGALTSGVHTFPAVLQSSGLYSLSSVVTVPSSSLGTQTYICNVNHKPSNTKVDKRVEPKSCDKTHTCPPCPAPEFEGGPSVFLFPPKPKDTLMISRTPEVTCVVVAVSHEDPEVKFNWYVDGVEVHNAKTKPREEQYNSTYRVVSVLTVLHQDWLNGKEYKCKVSNKALPAPIEKTISKAKGQPREPQVYTLPPSREEMTKNQVSLTCLVKGFYPSDIAVEWESNGQPENNYKTTPPVLDSDGSFFLYSRLTVDKSRWQQGNVFSCSVMHEALHNHYTQKSLSLSPG light: DIVMTQAAFSNPVTLGTSASISCRSSKNLLHSNGITYLYWYLQKPGQSPHLLIYQMSNLASGVPDRFSSSGSGTDFTLRISRVEAEDVGVYYCAQNLEIPRTFGGGTKLEIKRTVAAPSVFIFPPSDEQLKSGTASVVCLLNNFYPREAKVQWKVDNALQSGNSQESVTEQDSKDSTYSLSSTLTLSKADYEKHKVYACEVTHQGLSSPVTKSFNRGEC | -0.02 nm | -0.01 nm | 0 nm | -0.02 nm |  |  |  |  | 
IgG1-EpCAM-323-A3 (antibody, Unmodified IgG1 constant region) heavy: not shown light: DIVMTQAAFSNPVTLGTSASISCRSSKNLLHSNGITYLYWYLQKPGQSPHLLIYQMSNLASGVPDRFSSSGSGTDFTLRISRVEAEDVGVYYCAQNLEIPRTFGGGTKLEIKRTVAAPSVFIFPPSDEQLKSGTASVVCLLNNFYPREAKVQWKVDNALQSGNSQESVTEQDSKDSTYSLSSTLTLSKADYEKHKVYACEVTHQGLSSPVTKSFNRGEC |  |  |  |  | binds | binds |  |  | 
IgG1-EpCAM-A37-FEAR (antibody) heavy: not shown light: EIELTQSPGTLSLSPGERATLSCRASQTISNNYLAWYQQKRGQAPRLLIYAASSRATGIPDRFSGTGSGTDFTLTISRLEPEDFAVYYCAQGELYPRQFGGGTKLEIKRTVAAPSVFIFPPSDEQLKSGTASVVCLLNNFYPREAKVQWKVDNALQSGNSQESVTEQDSKDSTYSLSSTLTLSKADYEKHKVYACEVTHQGLSSPVTKSFNRGEC | -0.04 nm | 0 nm | -0.01 nm | 0 nm | binds | binds |  |  | 
bsIgG1-CD137-009-HC7LC2-FEAL/EpCAM-A37-FEAR (bispecific antibody) heavy 1: EVQLVESGGGLVQPGRSLRLSCTASGFSLNDYWMSWVRQAPGKGLEWVGYIDVGGSLYYAASVKGRFTISRDDSKSIAYLQMNSLKTEDTAVYYCARGGLTYGFDLWGQGTLVTVSSASTKGPSVFPLAPSSKSTSGGTAALGCLVKDYFPEPVTVSWNSGALTSGVHTFPAVLQSSGLYSLSSVVTVPSSSLGTQTYICNVNHKPSNTKVDKRVEPKSCDKTHTCPPCPAPEFEGGPSVFLFPPKPKDTLMISRTPEVTCVVVAVSHEDPEVKFNWYVDGVEVHNAKTKPREEQYNSTYRVVSVLTVLHQDWLNGKEYKCKVSNKALPAPIEKTISKAKGQPREPQVYTLPPSREEMTKNQVSLTCLVKGFYPSDIAVEWESNGQPENNYKTTPPVLDSDGSFLLYSKLTVDKSRWQQGNVFSCSVMHEALHNHYTQKSLSLSPG light 1: DIVMTQSPSSLSASVGDRVTITCQASEDISSYLAWYQQKPGKAPKRLIYGASDLASGVPSRFSASGSGTDYTFTISSLQPEDIATYYCHYYATISGLGVAFGGGTKVEIKRTVAAPSVFIFPPSDEQLKSGTASVVCLLNNFYPREAKVQWKVDNALQSGNSQESVTEQDSKDSTYSLSSTLTLSKADYEKHKVYACEVTHQGLSSPVTKSFNRGEC heavy 2: not shown light 2: EIELTQSPGTLSLSPGERATLSCRASQTISNNYLAWYQQKRGQAPRLLIYAASSRATGIPDRFSGTGSGTDFTLTISRLEPEDFAVYYCAQGELYPRQFGGGTKLEIKRTVAAPSVFIFPPSDEQLKSGTASVVCLLNNFYPREAKVQWKVDNALQSGNSQESVTEQDSKDSTYSLSSTLTLSKADYEKHKVYACEVTHQGLSSPVTKSFNRGEC |  |  |  |  |  |  | no binding (tested: 10,000 nM (highest concentration tested)) | no binding (tested: 3,000 nM (highest concentration tested)) | no binding (tested: 10,000 nM (highest concentration tested))
IgG1-EpCAM-C52-FEAR (antibody, V domains shown, The running text prints C52 as 052; also called IgG1-EpCAM-052-FEAR) VH: QVQLVQSGAEVKKPGASVKVSCKASGGTFSSYAISWVRQAPGQGLEWMGGIVPIFGTANYAQKFQGRVTITADESTSTAYMELSSLRSEDTAVYYCARDPFLHYWGQGTLVTVSS VL: EIELTQSPGTLSLSPGERATLSCRASQSVSSSYLAWYQQKPGQAPRLLIYGASSRATGIPDRFSGSGSGTDFTLTISRLEPEDFAVYYCAQGELYPRQFGGGTKLDIKR | -0.03 nm | 0 nm | -0.01 nm | -0.02 nm | binds | binds |  |  | 
IgG1-EpCAM-UBS-54-FEAR (antibody, V domains shown) VH: QVQLVQSGAEVKKPGSSVRVSCKASGGTFSSYAISWVRQAPGQGLEWMGGIIPIFGTANYAQKFQGRVTITADESTSTAYMELSSLRSEDTAVYYCARDPFLHYWGQGTLVTVSS VL: not shown | -0.03 nm | -0.02 nm | 0 nm | -0.01 nm | binds | binds |  |  | 
